Common to all, as to experiment: pull-down SILAC MS
For data set [1], the system named is MBD2 (U937 nuclear extract) (Homo sapiens). As to conditions: 5-methylcytosine at CpG (M.SssI); EMSA: 20 mM HEPES pH 7.9, 1 mM EDTA, 3 mM MgCl2, 10 mM beta-mercaptoethanol, 10% glycerol, 0.1% Triton X-100, 2 ug BSA, 10 ng poly(dI-dC), 30 min on ice …; scale: H/L ratio methylated/unmethylated. A general note: Mobility shift assays separate free from complexed probe on a gel.

The test system of data set [2] is MeCP2 (U937 nuclear extract) (Homo sapiens). The following applies: reverse ratio 0.18572; 5-methylcytosine at CpG (M.SssI); EMSA: 20 mM HEPES pH 7.9, 1 mM EDTA, 3 mM MgCl2, 10 mM beta-mercaptoethanol, 10% glycerol, 0.1% Triton X-100, 2 ug BSA, 10 ng poly(dI-dC), 30 min on ice …; scale: H/L ratio methylated/unmethylated.
Data set [3] relates to RBP-J (U937 nuclear extract) (Homo sapiens). As to conditions: reverse ratio 0.11974; 5-methylcytosine at CpG (M.SssI); EMSA: 20 mM HEPES pH 7.9, 1 mM EDTA, 3 mM MgCl2, 10 mM beta-mercaptoethanol, 10% glycerol, 0.1% Triton X-100, 2 ug BSA, 10 ng poly(dI-dC), 30 min on ice …; scale: H/L ratio methylated/unmethylated.

Turning to “GSTP1 CpG-island multimer, methylated (pull-down)”, the binding signal in data set [1] was 12.9; in data set [2], 4.54; in data set [3], 6.21.

The values are drawn from publication PMC3185043.
